From IntAct's records for PubMed 31515488

B1: Fructose-1,6-bisphosphatase 1 (Homo sapiens), P09467 (parent)
chain: MADQAPFDTDVNTLTRFVMEEGRKARGTGELTQLLNSLCTAVKAISSAVRKAGIAHLYGIAGSTNVTGDQVKKLDVLSNDLVMNMLKSSFATCVLVSEEDKHAIIVEPEKRGKYVVCFDPLDGSSNIDCLVSVGTIFGIYRKKSTDEPSEKDALQPGRNLVAAGYALYGSATMLVLAMDCGVNCFMLDPAIGEFILVDKDVKIKKKGKIYSLNEGYARDFDPAVTEYIQRKKFPPDNSAPYGARYVGSMVADVHRTLVYGGIFLYPANKKSPNGKLRLLYECNPMAYVMEKAGGMATTGKEAVLDVIPTDIHQRAPVILGSPDDVLEFLKVYEKHSAQ
B2: Cyclin-dependent kinase 4 inhibitor C (Homo sapiens), P42773 (parent)
chain: MAEPWGNELASAAARGDLEQLTSLLQNNVNVNAQNGFGRTALQVMKLGNPEIARRLLLRGANPDLKDRTGFAVIHDAARAGFLDTLQTLLEFQADVNIEDNEGNLPLHLAAKEGHLRVVEFLVKHTASNVGHRNHKGDTACDLARLYGRNEVVSLMQANGAGGATNLQ
partner: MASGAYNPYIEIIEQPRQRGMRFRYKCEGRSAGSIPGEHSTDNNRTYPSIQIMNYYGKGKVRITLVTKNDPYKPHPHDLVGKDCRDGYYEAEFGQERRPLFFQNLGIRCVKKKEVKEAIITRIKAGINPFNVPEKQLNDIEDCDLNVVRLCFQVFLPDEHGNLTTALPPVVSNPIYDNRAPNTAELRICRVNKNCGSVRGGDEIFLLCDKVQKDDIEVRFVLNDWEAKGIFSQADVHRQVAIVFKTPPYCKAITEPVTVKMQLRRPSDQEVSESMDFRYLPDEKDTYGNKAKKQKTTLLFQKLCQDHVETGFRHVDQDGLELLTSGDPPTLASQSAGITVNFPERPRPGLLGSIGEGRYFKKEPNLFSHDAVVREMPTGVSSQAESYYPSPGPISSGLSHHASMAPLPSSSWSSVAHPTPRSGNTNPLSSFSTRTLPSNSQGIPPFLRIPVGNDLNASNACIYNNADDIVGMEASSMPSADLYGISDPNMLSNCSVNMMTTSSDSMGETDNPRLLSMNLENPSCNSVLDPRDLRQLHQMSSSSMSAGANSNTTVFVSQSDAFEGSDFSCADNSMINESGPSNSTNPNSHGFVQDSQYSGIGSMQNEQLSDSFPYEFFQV
B3: Microtubule-associated tumor suppressor candidate 2 (Homo sapiens), Q5JR59-3 (parent)
chain: MGHCCCKPYNCLQCLDKTNESALVKEKELSIELANIRDEVAFHTAKCEKLQKEKEELERRFEDEVKRLGWQQQAELQELEERLQLQFEAEMARLQEEHGDQLLSIRCQHQEQVEDLTASHDAALLEMENNHTVAITILQDDHDHKVQELMSTHELEKKELEENFEKLRLSLQDQVDTLTFQSQSLRDRARRFEEALRKNTEEQLEIALAPYQHLEEDMKSLKQVLEMKNQQIHEQEKKILELEKLAEKNIILEEKIQVLQQQNEDLKARIDQNTVVTRQLSEENANLQEYVEKETQEKKRLSRTNEELLWKLQTGDPTSPIKLSPTSPVYRGSSSGPSSPARVSTTPR
partner: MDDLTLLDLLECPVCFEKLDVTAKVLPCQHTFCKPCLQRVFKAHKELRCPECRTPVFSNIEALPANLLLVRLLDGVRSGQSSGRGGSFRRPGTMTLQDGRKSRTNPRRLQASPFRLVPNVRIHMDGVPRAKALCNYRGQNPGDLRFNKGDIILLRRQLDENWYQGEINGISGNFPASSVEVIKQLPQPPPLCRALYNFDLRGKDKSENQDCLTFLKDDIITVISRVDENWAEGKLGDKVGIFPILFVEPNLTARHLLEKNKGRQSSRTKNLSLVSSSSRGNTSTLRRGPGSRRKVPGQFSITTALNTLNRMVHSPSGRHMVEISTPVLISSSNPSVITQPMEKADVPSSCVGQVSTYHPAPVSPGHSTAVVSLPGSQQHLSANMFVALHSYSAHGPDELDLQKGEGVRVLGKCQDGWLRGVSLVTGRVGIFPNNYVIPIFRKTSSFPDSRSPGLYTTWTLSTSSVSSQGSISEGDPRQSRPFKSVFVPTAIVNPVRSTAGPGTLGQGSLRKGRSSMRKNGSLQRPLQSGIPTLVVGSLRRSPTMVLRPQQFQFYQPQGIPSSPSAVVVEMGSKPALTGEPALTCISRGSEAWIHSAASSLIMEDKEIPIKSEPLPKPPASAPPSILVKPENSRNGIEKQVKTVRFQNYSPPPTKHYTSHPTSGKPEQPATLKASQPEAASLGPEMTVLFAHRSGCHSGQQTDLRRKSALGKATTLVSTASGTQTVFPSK
B4: Calcium-binding and coiled-coil domain-containing protein 2 (Homo sapiens), Q13137 (parent)
chain: MEETIKDPPTSAVLLDHCHFSQVIFNSVEKFYIPGGDVTCHYTFTQHFIPRRKDWIGIFRVGWKTTREYYTFMWVTLPIDLNNKSAKQQEVQFKAYYLPKDDEYYQFCYVDEDGVVRGASIPFQFRPENEEDILVVTTQGEVEEIEQHNKELCKENQELKDSCISLQKQNSDMQAELQKKQEELETLQSINKKLELKVKEQKDYWETELLQLKEQNQKMSSENEKMGIRVDQLQAQLSTQEKEMEKLVQGDQDKTEQLEQLKKENDHLFLSLTEQRKDQKKLEQTVEQMKQNETTAMKKQQELMDENFDLSKRLSENEIICNALQRQKERLEGENDLLKRENSRLLSYMGLDFNSLPYQVPTSDEGGARQNPGLAYGNPYSGIQESSSPSPLSIKKCPICKADDICDHTLEQQQMQPLCFNCPICDKIFPATEKQIFEDHVFCHSL
partner: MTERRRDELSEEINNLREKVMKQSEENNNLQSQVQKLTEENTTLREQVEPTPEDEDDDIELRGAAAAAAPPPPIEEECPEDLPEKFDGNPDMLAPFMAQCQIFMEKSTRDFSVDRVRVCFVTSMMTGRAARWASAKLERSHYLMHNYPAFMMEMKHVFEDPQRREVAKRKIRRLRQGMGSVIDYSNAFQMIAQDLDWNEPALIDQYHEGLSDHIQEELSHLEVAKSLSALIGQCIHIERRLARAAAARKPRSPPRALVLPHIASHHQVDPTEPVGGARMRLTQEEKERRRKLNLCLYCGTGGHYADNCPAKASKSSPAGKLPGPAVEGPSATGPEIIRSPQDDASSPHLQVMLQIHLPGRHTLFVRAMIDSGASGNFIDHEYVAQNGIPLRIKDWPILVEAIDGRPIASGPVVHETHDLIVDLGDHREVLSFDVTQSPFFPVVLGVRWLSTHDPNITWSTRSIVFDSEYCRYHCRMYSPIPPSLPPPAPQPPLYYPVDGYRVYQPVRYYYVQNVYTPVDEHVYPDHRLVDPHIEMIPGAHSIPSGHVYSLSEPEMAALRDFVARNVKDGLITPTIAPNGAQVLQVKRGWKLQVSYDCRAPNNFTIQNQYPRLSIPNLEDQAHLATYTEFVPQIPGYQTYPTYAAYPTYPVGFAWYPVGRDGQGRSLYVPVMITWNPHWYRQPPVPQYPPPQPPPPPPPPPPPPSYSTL

Variants of: B1
Conditions: with fxr2_human FXR2, P51116

Row | Variant | effect of a mutation on the interaction
1 | MADQAPFDTDVNTLTRFVMEEGRKARGTGELTQLLNSLCTAVKAISSAVRKAGIAHLYGIAGSTNVTGDQVKKLDVLSNDLVMNMLKSSFATCVLVSEEDKHAIIVEPEKRGKYVVCFDPLDGSSNIDCLVSVGTIFGIYRKKSTDEPSEKDALQPGRNLVAAGYALYGSATMLVLAMDCGVNCFMLDPAIGEFILVDKDVKIKKKGKIYSLNEGYARDFDPAVTEYIQRKKFPPDNSAPYGARYVGSMVADVHRTLVYRGIFLYPANKKSPNGKLRLLYECNPMAYVMEKAGGMATTGKEAVLDVIPTDIHQRAPVILGSPDDVLEFLKVYEKHSAQ [G260R] | disrupting interaction strength

Variants of: B2
Conditions: with rel_human REL

Row | Variant | effect of a mutation on the interaction
2 | MAEPWGNELASAAARGDLEQLTSLLQNNVNLNAQNGFGRTALQVMKLGNPEIARRLLLRGANPDLKDRTGFAVIHDAARAGFLDTLQTLLEFQADVNIEDNEGNLPLHLAAKEGHLRVVEFLVKHTASNVGHRNHKGDTACDLARLYGRNEVVSLMQANGAGGATNLQ [V31L] | disrupting interaction strength
3 | MAEPWGNELASAAARGDLEQLTSLLQNNVNVNAQNGFGRTALQVMKLGNPEIARRLLLRGANPDLKDRAGFAVIHDAARAGFLDTLQTLLEFQADVNIEDNEGNLPLHLAAKEGHLRVVEFLVKHTASNVGHRNHKGDTACDLARLYGRNEVVSLMQANGAGGATNLQ [T69A] | with no effect

Variants of: B3
Conditions: with sh3r2_human SH3RF2, Q8TEC5

Row | Variant | effect of a mutation on the interaction
4 | MGHCCCKPYNCLQCLDKTNESALVKEKELSIELANIRDEVAFHTAKCEKLQKEKEELERRFEDEVKRLGWQQQAELQELEERLQLQFEVEMARLQEEHGDQLLSIRCQHQEQVEDLTASHDAALLEMENNHTVAITILQDDHDHKVQELMSTHELEKKELEENFEKLRLSLQDQVDTLTFQSQSLRDRARRFEEALRKNTEEQLEIALAPYQHLEEDMKSLKQVLEMKNQQIHEQEKKILELEKLAEKNIILEEKIQVLQQQNEDLKARIDQNTVVTRQLSEENANLQEYVEKETQEKKRLSRTNEELLWKLQTGDPTSPIKLSPTSPVYRGSSSGPSSPARVSTTPR [A89V] | with no effect

Variants of: B4
Conditions: with peg10_human PEG10, Q86TG7

Row | Variant | effect of a mutation on the interaction
5 | MEETIKDPPTSAVLLDHCHFSQVIFNSVEKFYIPGGDVTCHYTFTQHFIPRRKDWIGIFRVGWKTTREYYTFMWVTLPIDLNNKSAKQQEVQFKAYYLPKDDEYYQFCYVDEDGVVRGASIPFQFRPENEEDILVVTTQGEVEEIEQHNKELCKENQELKDSCISLQKQNSDMQAELQKKQEELETLQSINKKLELKVKEQKDYWETELLQLKEQNQKMSSENEKMGIRVDQLQAQLSTQEKEMEKLVQGDQDKTEQLEQLKKENDHLFLSLAEQRKDQKKLEQTVEQMKQNETTAMKKQQELMDENFDLSKRLSENEIICNALQRQKERLEGENDLLKRENSRLLSYMGLDFNSLPYQVPTSDEGGARQNPGLAYGNPYSGIQESSSPSPLSIKKCPICKADDICDHTLEQQQMQPLCFNCPICDKIFPATEKQIFEDHVFCHSL [T273A] | with no effect
6 | MEETIKDPPTSAVLLDHCHFSQVIFNSVEKFYIPGGDVTCHYTFTQHFIPRRKDWIGIFRVGWKTTREYYTFMWVTLPIDLNNKSAKQQEVQFKAYYLPKDDEYYQFCYVDEDGVVRGASIPFQFRPENEEDILVVTTQGEVEEIEQHNKELCKENQELKDSCISLQKQNSDMQAELQKKQEELETLQSINKKLELKVKEQKDYWETELLQLKEQNQKMSSENEKMGIRVDQLQAQLSTQEKEMEKLVQGDQDKTEQLEQLKKENDHLFLSLTEQRKDQKKLEQTVEQMKQNETTAMKKQQELMDENFDLSKRLSENEIICNALQRQKERLEGENDLLKRENSRLLSYMGLDFNSLPYQVPTSDEGGARQNPGLAYGNPYSGIQESSSASPLSIKKCPICKADDICDHTLEQQQMQPLCFNCPICDKIFPATEKQIFEDHVFCHSL [P389A] | with no effect
